In this assay the target is C-terminal domain of Caenorhabditis elegans KCC-1, wild type, as used in solution (SEC, SEC/MALS) (C. elegans). Kind of assay: SEC.

“C-terminal domain of Caenorhabditis elegans KCC-1, wild type, as used in solution (SEC, SEC/MALS) (domain or fragment)” gave a stoichiometry N of 2.

By stoichiometry N is commonly meant a count of units in the complex or per binding partner.

Source of the values: paper PMC8408865.
